The target in test [1] is T1, recombinant human IL-13Rα2 ECD (human, UniProt Q14627 27-343).
T1 construct: Interleukin-13 receptor alpha 2, human, extracellular domain; also called rhIL-13Rα2 ECD; Interleukin-13 receptor alpha 2; source: bought: Sino Biological (Cat. #10350-H08H-20)
T1 sequence (looked up): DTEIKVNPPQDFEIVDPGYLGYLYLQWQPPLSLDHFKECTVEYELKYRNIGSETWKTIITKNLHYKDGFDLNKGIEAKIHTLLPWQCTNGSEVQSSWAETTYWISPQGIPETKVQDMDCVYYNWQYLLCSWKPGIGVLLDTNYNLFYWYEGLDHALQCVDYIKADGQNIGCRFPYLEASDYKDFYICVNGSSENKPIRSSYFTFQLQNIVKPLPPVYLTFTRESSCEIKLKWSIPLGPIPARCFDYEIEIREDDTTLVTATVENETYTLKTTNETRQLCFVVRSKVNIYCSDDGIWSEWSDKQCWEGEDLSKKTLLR
The test is described as follows: BLI; Octet K2; CHI3L1 or IL-13Rα2 ECD immobilised on AR2G biosensor by amine coupling; CD44v3 peptide (15.6, 31.1, 62.5, 125, 250 μM) in the mobile phase; 20 mM HEPES, 150 mM NaCl, 0.05% Tween-20, 1 mM MgCl2 (or 5 mM EDTA); pH 7.4 in the results (pH 7.5 in the methods); heterogeneous ligand model. Particulars: both partners purified. (In general: BLI is a label-free optical method that tracks binding on a fibre tip over time.)

The target in test [2] is T2, recombinant human CHI3L1 (human, UniProt P36222 22-383).
T2 construct: Chitinase 3-like-1 (CHI3L1, YKL-40), human, recombinant; also called rhCHI3L1; RhCHI3L1; source: bought: R&D Systems (Cat. #2599-CH)
The test is described as above. Particulars: both partners purified.

T2 sequence (P36222 22-383): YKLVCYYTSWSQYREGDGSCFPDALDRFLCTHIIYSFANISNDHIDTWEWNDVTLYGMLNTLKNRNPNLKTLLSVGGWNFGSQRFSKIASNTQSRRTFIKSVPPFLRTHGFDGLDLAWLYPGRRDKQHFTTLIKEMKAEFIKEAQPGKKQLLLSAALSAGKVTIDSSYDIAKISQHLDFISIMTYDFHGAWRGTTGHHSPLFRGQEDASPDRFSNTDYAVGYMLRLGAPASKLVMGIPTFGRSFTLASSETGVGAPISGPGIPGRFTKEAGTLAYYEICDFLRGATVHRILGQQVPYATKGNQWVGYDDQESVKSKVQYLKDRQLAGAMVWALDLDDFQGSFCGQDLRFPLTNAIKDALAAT

B1: CD44v3 peptide (peptide)
peptide: GWEPNEENEDERDRHLSFSGSGIDDDEDFISSTI
notes: peptide fragment of the v3 domain of CD44; contains the SGSG heparan sulfate assembly motif; also called peptide fragment of CD44v3 domain; source: synthetic peptide (ChinaPeptides Co., Ltd.)
Take B1: in test [1], the dissociation constant Kd (usually a measure of binding affinity in units of concentration) was determined as 563 ± 15.9 µM; the koff – broadly, the rate constant with which the complex falls apart – is 0.0162 s⁻¹; the on-rate (kon) – broadly, the rate constant with which the complex forms – amounted to 28.8 ± 7.66 M⁻¹ s⁻¹. For the same molecule, in test [2], the dissociation constant (Kd) turned out to be 443 ± 21.4 µM, the koff amounted to 0.013 s⁻¹ and the on-rate constant (kon) is 29.4 ± 1.39 M⁻¹ s⁻¹.

These data come from PMC6117920, “Chitinase 3-like 1-CD44 interaction promotes metastasis and epithelial-to-mesenchymal transition through β-catenin/Erk/Akt signaling in gastric cancer” (Journal of Experimental & Clinical Cancer Research : CR, 2018).
